Laboratory results as given in the MegaScale stability set (Tsuboyama et al. 2023).

B1: r11_951_TrROS_Hall (parent)
chain: KKKYVIKVYFEDTGKEVEIEAESKEEALEAAKRLAEELGLKIKKVEIYP

Variants of: B1
Assay: folding stability dG (cDNA display proteolysis); higher = more stable
Settings: PBS, room temperature

Folding stability dG [kJ/mol] of substitutions, site by site:
A31: Q 11.8; N 7.23; G 17.4; R 10.3; W 17.8; F 18.7; T 16.8
V5: R 19.5; C 16; D 12.6; F 18.5; A 18.2; P 9.98; N 17.3
A27: E 7.44; W 16.4; D 6.22
K2: M 19.2; A 18.5; R 18.7; H 18.9; Q 18.2; S 18.9; C 18.7; N 17.7; D 16.1
A30: E 18; C 17.4; V 18.6; I 18.8; D 17.4; R 19.2; L 19.5; Q 18.6; P 8.65
E16: H 18; D 19.3; P 17.6; Q 17.6; G 18.2; I 19.1; L 17.9
V17: F 18.5; A 17.7; Y 18.2; E 17.9; G 16.9; L 18.5; R 18
G39: N 18.4; H 18; A 18.8; Q 18.3; I 15.4; L 17; P 11.4; D 16.7; K 19
K7: W 18.6; N 16.3; L 17.1; I 17.2; E 13; R 19.4; S 15.6
E36: D 18.5; R 20.5; V 19.5; T 19.2; H 19.1; C 18.4; K 19
I47: E 18.1; T 17.4; G 17; S 17.7; R 15.8; Q 17.8; L 18.8
L28: K 17.9; Q 18; W 19.4; R 17.7; E 17.9; V 18.9; H 18.6; I 18.5
K1: R 19.7; E 17.4; S 17.8; L 18.9; G 19.4; W 18.3; C 19.1; M 20.1; H 18.7
K15: G 17.5; C 13.4; W 17.7; Y 18.9; V 18.3; F 18.3; H 19
I42: M 16.7; Q 10.6; H 11.2; V 17.5; A 13.4; N 10.7
E25: A 18.4; F 18.2; Q 17.5; T 17.9
F10: N 10.8; H 10.7; G 13.2; E 10.5; M 15.6; W 18.6; K 6.91; S 13.1; V 12.5; P 8.68; Y 16.5
L40: D 16.1; V 17.1; T 16.4; H 17.2; N 15.3; P 12.7; A 16.8
L34: A 17.4; R 18.1; N 15.3; P 5.61; I 17.9; C 16.1; D 12.3; F 18.9; E 15.4; Q 16.7
V45: P 10.5; G 11.7; M 18.7; Q 16.2; Y 18.6
Y48: A 17.8; R 18.2; E 17.2; H 18.6; P 17.1; W 18.9; N 18.6
K44: W 17.7; S 18.5; I 17.6; V 17.5; M 18; C 17.2; L 17.3; T 17.5
P49: I 19.8; V 18.6; M 19.6; C 18.9; D 19.2; T 19.3; F 19.2
K3: P 18.8; H 18.4; V 17.7
E20: K 16.9; A 18.1; N 17.7; D 17.9; I 18.3; V 18.5
E18: Y 17.2; W 18; D 18.6
A35: R 14.9; K 15; Y 15.8; W 17.3; F 17.3; G 17.8; L 16.3; V 17; Q 16.3; C 17.1
E26: A 19.5; G 19.1; M 18.3; D 18.1
Y4: M 16.6; C 16.1; N 12.2; V 19.1; F 17.6; Q 14.9; R 12.5; W 18
E11: C 19.4; H 20.2; R 20.1; N 19.5; L 20.6; Y 20.2; I 20.3; K 19.4
S23: R 16.8; G 17; M 16; C 16.9; V 16.4; Y 16.7; F 17.8; H 17.1
D12: I 19.5; C 18.3; A 18.4; K 19.3; Q 18.3; R 20; V 18.2; P 18.2
V8: F 19.3; C 16.4; R 0.724; Q 6.38; W 16.9; S 7.81
A21: N 16; K 17.9; D 15.6; V 18.6; Y 17.5
T13: A 18.5; F 18.2; I 18.4; R 19.5; P 18.7
E46: C 17.4; K 17.6; D 18.3; P 10.1; N 17.5; F 19.4; Y 19.3; L 18.3; G 15.5; H 19; S 18.1
K24: T 19.1; S 18; R 18; G 18.5; L 18.8; N 18.7; Q 18.3; I 18.9
E29: S 19.1; M 20; H 18.9; K 18.9; L 20.7
R33: C 17.4; S 17.6; H 17.5; V 17.7; M 18.1; G 17.6; T 17.5; N 17.7
E37: P 12; A 19.5; N 18.5; I 19.3; C 20.7; L 19
K43: H 18.1; N 17.9; D 17.9; P 12.3
I6: S 14.3; V 17; W 19.5; P -0.824; R 3.97; Q 6.64; K 2.89; L 18.2; M 18.6
L38: G 16.1; P 12; H 17.3; Y 18.9; T 17.4; V 18; W 18.9; D 14.2; S 17.9
Y9: I 18.2; V 18
I19: G 13.9; N 11.1; D 12.8; K 13.3
K41: R 19.3; C 18.1; Y 18.8; L 18.2; V 18.1; E 17.4; W 17.2; A 18.1; Q 16.8
E22: V 18; R 17.5; M 17; T 17.7
K32: F 20.8; V 18.2; I 18.2; G 17.3; A 18.6; D 17.6
G14: M 18; S 19.5; E 18; L 17.8; V 19.3; I 19.2; C 18.2
